Data as given in the supplement of paper PMC7877785.
± gives the uncertainty stated by the source.

Assay: self-splicing fitness, log relative to wild type (ln ratio); higher = more splicing; Tetrahymena group I intron in knt gene, E. coli kanamycin selection, DiMSum; sequences stand for … in CUCUCU…GGAGGGAAAAGUUAUCAGGCAUGCACCUGGUAGCUAGUCUUUAAACCAAUAGAUUGCAUCGGUUUAAAAGGCAAGACCGUCAAAUUGCGGGAAAGGGGUCAACAGCCGUUCAGUACCAAGUCUCAGGGGAAACUUUGAGAUGGCCUUGCAAAGGGUAUGGUAAUAAGCUGACGGACAUGGUCCUAACCACGCAGCCAAGUCCUAAGUCAACAGAUCUUCUGUUGAUAUGGAUGCAGUUCACAGACUAAAUGUCGGUCGGGGAAGAUGUAUUCUUCUCAUAAGAUAUAGUCGGACCUCUCCUUAAUGGGAGCUAGCGGAUGAAGUGAUGCAACACUGGAGCCGCUGGGAACUAAUUUGUAUGCGAAAGUAUAUUGAUUAGUUUUGGAGUACUCGUGGUCG
Procedure, shortened: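 Colonies from six replicate transformations of E. coli BL21(DE3) were pooled and amplicon-sequenced on an Illumina HiSeq 2500. The library placed an intron with all eight P1ex-region nucleotides randomised inside the knt kanamycin-resistance gene on pET-22b(+), and cells grew overnight at 37°C or 30°C on LB agar with or without 25 μg/mL kanamycin (plus 100 μg/mL carbenicillin, 50 μM IPTG, 0.2% rhamnose). Fitness is the DiMSum error-weighted combination of wild-type-normalised replicate fold changes, kanamycin versus none.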

Row | Sequence | self-splicing fitness (ln) (30 °C) | self-splicing fitness (ln) (37 °C)
1 | CUAGAGCAAUAUUACGGUAG | -0.666 ± 0.12 | -0.0273 ± 0.15
2 | GUGCAGCAAUAUUACGAUCA | -1.14 ± 0.1 | -0.487 ± 0.12
3 | AGUAAGCAAUAUUACGUCCC | -0.303 ± 0.15 | 0.019 ± 0.18
4 | GGGAAGCAAUAUUACGUGCC |  | -0.148 ± 0.38
5 | CCAUAGCAAUAUUACGUAUC | -2.32 ± 0.15 | -2.01 ± 0.31
6 | UCGAAGCAAUAUUACGGGAU | -3.98 ± 0.31 | -3.17 ± 0.32
7 | GACAAGCAAUAUUACGCACU | 0.582 ± 0.11 | -0.112 ± 0.12
8 | UUAUAGCAAUAUUACGAAGU | -3.61 ± 0.45 | -2.44 ± 0.28
